Earlier results in publication PMC10046553.

Target: CD71 (transferrin receptor 1) (Homo sapiens) (UniProt P02786)
Sequence (P02786 89-760): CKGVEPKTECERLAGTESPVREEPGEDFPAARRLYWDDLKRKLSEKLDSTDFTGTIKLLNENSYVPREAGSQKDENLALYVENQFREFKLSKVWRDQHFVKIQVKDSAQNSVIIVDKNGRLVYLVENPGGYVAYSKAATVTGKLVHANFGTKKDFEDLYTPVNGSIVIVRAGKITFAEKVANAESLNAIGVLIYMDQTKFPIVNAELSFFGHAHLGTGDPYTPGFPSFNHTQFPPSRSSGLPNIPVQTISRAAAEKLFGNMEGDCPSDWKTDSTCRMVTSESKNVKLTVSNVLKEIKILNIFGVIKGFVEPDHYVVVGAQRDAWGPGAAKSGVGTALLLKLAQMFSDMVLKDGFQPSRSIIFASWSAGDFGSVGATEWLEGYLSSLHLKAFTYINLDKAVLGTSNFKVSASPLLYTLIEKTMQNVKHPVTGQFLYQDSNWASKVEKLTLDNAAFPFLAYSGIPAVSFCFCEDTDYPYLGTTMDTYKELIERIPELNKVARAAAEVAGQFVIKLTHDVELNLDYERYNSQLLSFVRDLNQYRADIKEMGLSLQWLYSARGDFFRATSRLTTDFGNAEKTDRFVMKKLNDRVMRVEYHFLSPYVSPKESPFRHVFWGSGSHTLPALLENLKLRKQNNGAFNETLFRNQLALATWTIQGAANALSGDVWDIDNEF

Kd: 750 nM
Substance: Human serum albumin (from UniProt P02768)
